Data taken from US20160033516A1 (SALK INSTITUTE FOR BIOLOGICAL STUDIES, published 2016).
Values belong to the molecule of their own block, whether it stands above or below them.

What was measured:
[1] = molecular target: Histone H4 H18 peptide GAKR-X-RKVL, X = 1-pTza (mammalian); experiment: synthetic peptide dot blot array
[2] = molecular target: ACLY-like H760 peptide AGAG-X-AGAG, X = 1-pTza (mammalian); experiment: synthetic peptide dot blot array
[3] = molecular target: GNB1 H266 peptide MTYS-X-DNII, X = 1-pTza (mammalian); experiment: synthetic peptide dot blot array
[4] = molecular target: NME1 H118 peptide RNII-X-GSDS, X = 1-pTza (mammalian); experiment: synthetic peptide dot blot array
[5] = molecular target: LDHA in lysates of FLAG-NME1 HEK 293 cells (human) (UniProt P00338); experiment: SILAC LC-MS/MS of mAb column eluate E1, FLAG-NME1 293 lysate, untreated over acid/heat-treated
[6] = molecular target: NME1 in lysates of FLAG-NME1 HEK 293 cells (human) (UniProt P15531); experiment: as above
NME1 in lysates of FLAG-NME1 HEK 293 cells (human), sequence (P15531 2-152 limits assumed): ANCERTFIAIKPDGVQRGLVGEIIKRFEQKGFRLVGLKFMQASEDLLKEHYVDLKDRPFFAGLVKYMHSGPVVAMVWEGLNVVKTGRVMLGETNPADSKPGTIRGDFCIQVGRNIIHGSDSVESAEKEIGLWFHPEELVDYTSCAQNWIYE

[7] = molecular target: GAPDH in lysates of FLAG-NME1 HEK 293 cells (human) (UniProt P04406); experiment: as above
GAPDH in lysates of FLAG-NME1 HEK 293 cells (human), sequence (P04406 2-335 limits assumed): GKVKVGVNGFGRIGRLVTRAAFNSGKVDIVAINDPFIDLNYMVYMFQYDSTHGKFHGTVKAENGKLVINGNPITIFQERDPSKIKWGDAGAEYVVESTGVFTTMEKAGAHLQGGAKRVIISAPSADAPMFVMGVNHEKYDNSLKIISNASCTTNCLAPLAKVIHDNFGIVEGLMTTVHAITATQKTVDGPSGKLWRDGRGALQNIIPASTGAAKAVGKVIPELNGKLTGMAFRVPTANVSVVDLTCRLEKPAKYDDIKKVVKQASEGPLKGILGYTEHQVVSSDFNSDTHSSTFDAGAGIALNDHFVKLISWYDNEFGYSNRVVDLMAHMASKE

[8] = molecular target: Histone H4 in lysates of FLAG-NME1 HEK 293 cells (human) (UniProt P62805); experiment: as above
[9] = molecular target: TCP1 in lysates of FLAG-NME1 HEK 293 cells (human) (UniProt P17987); experiment: as above
TCP1 in lysates of FLAG-NME1 HEK 293 cells (human), sequence (P17987 whole entry): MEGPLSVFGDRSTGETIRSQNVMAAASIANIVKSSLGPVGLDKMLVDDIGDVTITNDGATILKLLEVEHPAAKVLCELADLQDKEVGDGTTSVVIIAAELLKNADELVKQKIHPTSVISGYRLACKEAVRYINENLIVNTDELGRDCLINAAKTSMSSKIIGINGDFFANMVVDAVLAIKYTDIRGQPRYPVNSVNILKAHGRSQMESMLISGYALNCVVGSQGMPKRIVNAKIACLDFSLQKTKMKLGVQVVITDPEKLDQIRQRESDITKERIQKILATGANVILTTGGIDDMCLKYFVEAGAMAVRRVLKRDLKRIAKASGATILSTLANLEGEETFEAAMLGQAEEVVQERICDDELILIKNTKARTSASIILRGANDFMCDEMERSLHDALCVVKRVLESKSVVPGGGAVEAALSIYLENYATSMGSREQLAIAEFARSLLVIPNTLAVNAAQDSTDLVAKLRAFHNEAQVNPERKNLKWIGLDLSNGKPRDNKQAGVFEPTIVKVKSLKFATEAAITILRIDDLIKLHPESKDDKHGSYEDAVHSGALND

[10] = molecular target: RPS3A in lysates of FLAG-NME1 HEK 293 cells (human) (UniProt P61247); experiment: as above
[11] = molecular target: ACLY (ATP-citrate lyase) in mammalian cell lysates (human) (UniProt P53396); experiment: as above
ACLY (ATP-citrate lyase) in mammalian cell lysates (human), sequence (P53396 whole entry): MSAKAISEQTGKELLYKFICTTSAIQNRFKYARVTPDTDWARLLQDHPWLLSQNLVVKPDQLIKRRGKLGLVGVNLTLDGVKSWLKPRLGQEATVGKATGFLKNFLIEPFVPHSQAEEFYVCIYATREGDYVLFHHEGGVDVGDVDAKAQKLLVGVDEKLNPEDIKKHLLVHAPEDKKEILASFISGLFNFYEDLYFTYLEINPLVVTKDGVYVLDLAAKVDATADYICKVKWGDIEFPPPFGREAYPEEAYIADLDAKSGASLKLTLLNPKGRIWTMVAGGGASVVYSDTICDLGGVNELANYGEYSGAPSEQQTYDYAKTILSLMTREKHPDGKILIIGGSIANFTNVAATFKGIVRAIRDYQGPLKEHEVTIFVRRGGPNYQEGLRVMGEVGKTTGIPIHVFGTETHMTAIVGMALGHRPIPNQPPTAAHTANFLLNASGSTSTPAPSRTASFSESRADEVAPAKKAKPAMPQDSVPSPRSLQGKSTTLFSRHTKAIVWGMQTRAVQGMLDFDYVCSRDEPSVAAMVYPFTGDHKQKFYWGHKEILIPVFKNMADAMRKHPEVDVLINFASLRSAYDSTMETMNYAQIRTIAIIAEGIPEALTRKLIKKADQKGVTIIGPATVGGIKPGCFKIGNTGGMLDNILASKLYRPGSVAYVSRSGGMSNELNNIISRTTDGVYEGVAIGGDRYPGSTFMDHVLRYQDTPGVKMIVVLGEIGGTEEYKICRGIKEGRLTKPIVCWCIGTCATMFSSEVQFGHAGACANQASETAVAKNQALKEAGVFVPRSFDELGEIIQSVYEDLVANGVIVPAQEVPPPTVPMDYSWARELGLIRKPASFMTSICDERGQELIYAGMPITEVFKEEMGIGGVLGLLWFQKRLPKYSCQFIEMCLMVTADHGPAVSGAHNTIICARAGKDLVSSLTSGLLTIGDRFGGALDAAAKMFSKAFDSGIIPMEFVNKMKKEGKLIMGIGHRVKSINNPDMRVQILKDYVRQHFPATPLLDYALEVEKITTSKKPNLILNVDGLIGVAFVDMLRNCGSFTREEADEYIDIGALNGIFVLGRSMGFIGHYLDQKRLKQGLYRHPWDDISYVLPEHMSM

[12] = molecular target: NME2 in lysates of FLAG-NME1 HEK 293 cells (human) (UniProt P22392); experiment: as above
NME2 in lysates of FLAG-NME1 HEK 293 cells (human), sequence (P22392 whole entry): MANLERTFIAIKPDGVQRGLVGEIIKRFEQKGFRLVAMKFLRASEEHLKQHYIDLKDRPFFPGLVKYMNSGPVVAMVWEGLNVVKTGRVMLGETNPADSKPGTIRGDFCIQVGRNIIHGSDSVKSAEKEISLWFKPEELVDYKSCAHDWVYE

[13] = molecular target: TUBB in lysates of FLAG-NME1 HEK 293 cells (human) (UniProt P07437); experiment: as above
TUBB in lysates of FLAG-NME1 HEK 293 cells (human), sequence (P07437 whole entry): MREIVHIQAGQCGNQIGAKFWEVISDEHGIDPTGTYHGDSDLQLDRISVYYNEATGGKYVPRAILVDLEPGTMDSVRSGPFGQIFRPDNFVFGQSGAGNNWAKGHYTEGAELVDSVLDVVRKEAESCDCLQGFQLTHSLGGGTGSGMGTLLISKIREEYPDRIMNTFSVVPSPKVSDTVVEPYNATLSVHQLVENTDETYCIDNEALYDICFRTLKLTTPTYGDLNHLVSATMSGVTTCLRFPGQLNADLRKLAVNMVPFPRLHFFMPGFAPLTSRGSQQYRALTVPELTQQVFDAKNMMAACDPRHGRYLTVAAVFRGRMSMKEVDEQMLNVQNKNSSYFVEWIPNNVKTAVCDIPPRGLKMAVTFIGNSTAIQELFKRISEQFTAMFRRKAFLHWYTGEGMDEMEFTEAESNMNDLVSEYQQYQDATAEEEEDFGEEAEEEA

[14] = molecular target: LDHA in lysates of FLAG-NME1 HEK 293 cells (human) (UniProt P00338); experiment: SILAC LC-MS/MS of mAb column eluate E2, FLAG-NME1 293 lysate, untreated over acid/heat-treated
[15] = molecular target: NME1 in lysates of FLAG-NME1 HEK 293 cells (human) (UniProt P15531); experiment: as above
[16] = molecular target: GAPDH in lysates of FLAG-NME1 HEK 293 cells (human) (UniProt P04406); experiment: as above
[17] = molecular target: YWHAB in lysates of FLAG-NME1 HEK 293 cells (human) (UniProt P31946); experiment: as above
YWHAB in lysates of FLAG-NME1 HEK 293 cells (human), sequence (P31946 whole entry): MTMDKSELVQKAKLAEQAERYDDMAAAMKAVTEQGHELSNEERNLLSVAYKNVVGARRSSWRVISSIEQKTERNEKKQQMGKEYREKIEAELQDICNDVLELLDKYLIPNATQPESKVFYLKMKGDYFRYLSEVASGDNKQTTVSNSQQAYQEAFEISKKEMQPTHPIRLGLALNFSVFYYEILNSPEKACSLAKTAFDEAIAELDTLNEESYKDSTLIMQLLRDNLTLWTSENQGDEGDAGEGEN

[18] = molecular target: PGAM, endogenous, in lysates of FLAG-NME1 HEK 293 cells (human) (UniProt P18669); experiment: as above
PGAM, endogenous, in lysates of FLAG-NME1 HEK 293 cells (human), sequence (P18669 2-254 limits assumed): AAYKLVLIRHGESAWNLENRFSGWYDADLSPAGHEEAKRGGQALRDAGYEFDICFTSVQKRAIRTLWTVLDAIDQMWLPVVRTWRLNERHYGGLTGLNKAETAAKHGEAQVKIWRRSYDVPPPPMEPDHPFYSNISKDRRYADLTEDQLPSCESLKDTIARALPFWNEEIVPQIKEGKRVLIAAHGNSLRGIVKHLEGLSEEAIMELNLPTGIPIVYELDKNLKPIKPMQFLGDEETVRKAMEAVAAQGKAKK

[19] = molecular target: Histone H4 in lysates of FLAG-NME1 HEK 293 cells (human) (UniProt P62805); experiment: as above
[20] = molecular target: TCP1 in lysates of FLAG-NME1 HEK 293 cells (human) (UniProt P17987); experiment: as above
[21] = molecular target: RPS3A in lysates of FLAG-NME1 HEK 293 cells (human) (UniProt P61247); experiment: as above
[22] = molecular target: ACLY (ATP-citrate lyase) in mammalian cell lysates (human) (UniProt P53396); experiment: as above
[23] = molecular target: NME2 in lysates of FLAG-NME1 HEK 293 cells (human) (UniProt P22392); experiment: as above
[24] = molecular target: SCS (succinyl-CoA synthetase) in mammalian cell lysates (human) (UniProt P53597); experiment: as above
SCS (succinyl-CoA synthetase) in mammalian cell lysates (human), sequence (P53597 41-346): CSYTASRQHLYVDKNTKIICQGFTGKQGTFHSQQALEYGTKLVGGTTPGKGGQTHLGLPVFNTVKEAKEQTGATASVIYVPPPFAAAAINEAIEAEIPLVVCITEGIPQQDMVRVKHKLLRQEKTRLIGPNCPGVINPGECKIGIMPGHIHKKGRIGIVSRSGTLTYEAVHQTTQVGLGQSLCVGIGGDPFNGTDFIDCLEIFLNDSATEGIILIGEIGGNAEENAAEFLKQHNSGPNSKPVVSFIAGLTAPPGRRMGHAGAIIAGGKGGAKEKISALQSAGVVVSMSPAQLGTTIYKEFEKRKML

[25] = molecular target: TUBB in lysates of FLAG-NME1 HEK 293 cells (human) (UniProt P07437); experiment: as above
[26] = molecular target: 506 proteins enriched by at least 2-fold in 3-pHis column elutions E1-E3; experiment: SILAC LC-MS/MS of mAb column eluates E1-E3, FLAG-NME1 293 lysate
[27] = molecular target: GNB1 in lysates of FLAG-NME1 HEK 293 cells (human, UniProt P62873 2-340, phosphohistidine, annotated site printed H226 in Table 1 (H266 elsewhere)); experiment: SILAC LC-MS/MS of mAb column eluate E2, FLAG-NME1 293 lysate, untreated over acid/heat-treated
GNB1 in lysates of FLAG-NME1 HEK 293 cells, sequence (P62873 2-340 limits assumed): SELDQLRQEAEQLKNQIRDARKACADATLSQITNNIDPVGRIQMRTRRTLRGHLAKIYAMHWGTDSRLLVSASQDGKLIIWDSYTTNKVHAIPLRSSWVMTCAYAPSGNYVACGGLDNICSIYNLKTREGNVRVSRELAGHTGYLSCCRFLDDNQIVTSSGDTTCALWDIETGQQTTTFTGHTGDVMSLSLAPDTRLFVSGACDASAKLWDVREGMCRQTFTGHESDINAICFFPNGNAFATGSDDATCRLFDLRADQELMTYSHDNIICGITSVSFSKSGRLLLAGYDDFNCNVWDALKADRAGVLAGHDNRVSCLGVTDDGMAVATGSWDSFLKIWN
Protocol: A dramatic decrease of pHis in the heavy lysates was confirmed by immunoblotting. Both lysates were neutralized, diluted (1:5 to 1 M urea, pH 8), mixed together and one half was passed over the 1-pHis mAb column while the other half was passed over the 3-pHis mAb column. LC-MS/MS analysis was performed on tryptic peptides derived from proteins that eluted off the columns at pH 11. A SILAC ratio (light/heavy) was calculated for each peptide to determine which proteins were enriched in the untreated, light vs. heavy lysates that had been treated to reduce pHis.
After crosslinking, pHis mAb resins (˜750 μl each) were packed in 10 ml chromatography columns (BioRad) and stored at 4° C. in or equilibrated with Wash/Binding Buffer (50 mM Tris, 30 mM sodium carbonate pH 8 (prepared by dilution of 100 mM sodium carbonate buffer pH 10 with H₂O and 1 M Tris pH 7)). Stable isotope labeling by amino acids in cell culture (SILAC) was performed on FLAG-NME1 293 cells which were metabolically labeled with Arg (¹³C₆/¹⁵N₄) and Lys (¹³C₆). These “heavy” labeled cells were used as an internal negative control for pHis mAb binding. Non-labeled, “light” FLAG-NME1 293 cells were cultured in parallel. For cell lysis, precautions were taken to preserve pHis and avoid salts and detergents that can interfere with downstream MS analysis. […]

[28] = molecular target: YWHAB in lysates of FLAG-NME1 HEK 293 cells (human) (UniProt P31946); experiment: SILAC LC-MS/MS of mAb column eluate E1, FLAG-NME1 293 lysate, untreated over acid/heat-treated
[29] = molecular target: PGAM, endogenous, in lysates of FLAG-NME1 HEK 293 cells (human) (UniProt P18669); experiment: as above

least amount detected [1]: 20 ng
least amount detected [2]: 20 ng
least amount detected [3]: 20 ng
least amount detected [4]: 20 ng
SILAC ratio (light/heavy) [5]: 4.18 fold
SILAC ratio (light/heavy) [6]: 15.1 fold
SILAC ratio (light/heavy) [7]: 3.4 fold
SILAC ratio (light/heavy) [8]: 19.1 fold
SILAC ratio (light/heavy) [9]: 6.1 fold
SILAC ratio (light/heavy) [10]: 7.21 fold
SILAC ratio (light/heavy) [11]: 5.29 fold
SILAC ratio (light/heavy) [12]: 15.6 fold
SILAC ratio (light/heavy) [13]: 3.55 fold
SILAC ratio (light/heavy) [14]: 6.5 fold
SILAC ratio (light/heavy) [15]: 51.9 fold
SILAC ratio (light/heavy) [16]: 4.45 fold
SILAC ratio (light/heavy) [17]: 2.04 fold
SILAC ratio (light/heavy) [18]: 4.25 fold
SILAC ratio (light/heavy) [19]: 9.8 fold
SILAC ratio (light/heavy) [20]: 5.99 fold
SILAC ratio (light/heavy) [21]: 9.1 fold
SILAC ratio (light/heavy) [22]: 7.2 fold
SILAC ratio (light/heavy) [23]: 56 fold
SILAC ratio (light/heavy) [24]: 1.68 fold
SILAC ratio (light/heavy) [25]: 4.49 fold
Molecule: anti-1-pHis mAb SC1-1 (antibody)

least amount detected [1]: 20 ng
least amount detected [2]: 20 ng
least amount detected [3]: 20 ng
least amount detected [4]: 20 ng
Molecule: anti-1-pHis mAb SC50-3 (antibody)

fold enrichment (SILAC ratio light/heavy) [26]: > 2 fold
SILAC ratio (light/heavy) [27]: 1.21 fold
SILAC ratio (light/heavy) [5]: 6.6 fold
SILAC ratio (light/heavy) [6]: 118 fold
SILAC ratio (light/heavy) [7]: 4.76 fold
SILAC ratio (light/heavy) [28]: 7.43 fold
SILAC ratio (light/heavy) [29]: 4.01 fold
SILAC ratio (light/heavy) [8]: 22.8 fold
SILAC ratio (light/heavy) [9]: 5.98 fold
SILAC ratio (light/heavy) [10]: 10.4 fold
SILAC ratio (light/heavy) [11]: 11.6 fold
SILAC ratio (light/heavy) [12]: 3.46 fold
SILAC ratio (light/heavy) [13]: 4.33 fold
SILAC ratio (light/heavy) [14]: 3.08 fold
SILAC ratio (light/heavy) [15]: 2.14 fold
SILAC ratio (light/heavy) [16]: 3.32 fold
SILAC ratio (light/heavy) [17]: 1.63 fold
SILAC ratio (light/heavy) [18]: 2.44 fold
SILAC ratio (light/heavy) [19]: 17.9 fold
SILAC ratio (light/heavy) [20]: 3.2 fold
SILAC ratio (light/heavy) [21]: 4.98 fold
SILAC ratio (light/heavy) [22]: 2.99 fold
SILAC ratio (light/heavy) [25]: 2.09 fold
B1: anti-3-pHis mAb SC39-4 (antibody, V domains shown, not shown: a dimerising Fc or GST)
VH: ESGGRLVTPGGSLTLTCTVSGFSLSRYNMGWVRQAPGKGLEWIGWIPFRGSLKYATWATGRFTISRTSTTVDLRMTGLTAADTATYFCVRSSDGFDLWGPGTLVTVSS
VL: QFVMTQTPASVEAVVGGTVTIKCQASRDTGDGLIWYQQKPGQPPKRLIYKASTVASGVPSRFKGRGSGTDFTLTISDLECADAATYYCHSNFYNRWTYGNAFGGGTEVVVKG
notes: Rabbit hybridoma monoclonal IgG, used as whole IgG (free or crosslinked to protein-A agarose)
